In patent publication US20220313819A1, “COMBINATION THERAPY FOR THE TREATMENT OF SOLID AND HEMATOLOGICAL CANCERS” (Arch Oncology, Inc., priority 2019, published 2022):

Assays:
[1] = tested on: Jurkat cells; test: Phagocytosis of tumor cells by human macrophages; format: cell-based; conditions: 1 μg/ml mAb
Description: Human derived macrophages were derived from leukapheresis of healthy human peripheral blood and incubated in AIM-V media (Life Technologies) for 7-10 days. For the in vitro phagocytosis assay, macrophages were re-plated at a concentration of 1×10^4 cells per well in 100 ul of AIM-V media in a 96-well plate and allowed to adhere for 24 hrs. Once the effector macrophages adhered to the culture dish, the target human cancer cells (Jurkat) were labelled with 1 μM 5(6)-Carboxyfluorescein diacetate N-succinimidyl ester (CFSE; Sigma Aldrich) and added to the macrophage cultures at a concentration of 5×10^4 cells in […] of AIM-V media (5:1 target to effector ratio). VLX4, VLX8, and VLX9 CD47 mAbs (1 μg/ml) were added immediately upon mixture of target and effector cells and allowed to incubate at 37° C. for 2-3 hours. After 2-3 hrs, all non-phagocytosed cells were removed and the remaining cells washed three times with phosphate buffered saline (PBS; Sigma Aldrich). Cells were then trypsinized, collected into microcentrifuge tubes, and incubated in 100 ng of allophycocyanin (APC) labelled CD14 antibodies (BD Biosciences) for 30 minutes, washed once, and analyzed by flow cytometry (Accuri C6; BD Biosciences) for the percentage of CD14^+ cells that were also CFSE^+ indicating complete phagocytosis.

[2] = tested on: Jurkat cells; test: Cell death by soluble mAb, annexin V / 7-AAD; format: cell-based, human; conditions: 1 μg/ml, 24 hrs
Description: Induction of cell death by soluble anti-CD47 mAbs is measured in vitro (Manna et al. (2003) J. Immunol. 107 (7): 3544-53, Kikuchi et al. Biochem Biophys Res. Commun. 315: 912-8, 2004), Pettersen et al. J. Immuno. 162: 7031-7040, 1999), Manna et al. Cancer Research, 64: 1026-1036, 2004). For the in vitro cell death assay, 1×10^5 transformed human T cells (Jurkat cells) were incubated with soluble humanized VLX4, VLX8, and VLX9 CD47 mAbs (1 μg/ml) for 24 hrs at 37° C. As cell death occurs, mitochondrial membrane potential is decreased, the inner leaflet of the cell membrane is inverted, exposing phosphatidylserines (PS), and propidium iodide (PI) or 7-aminoactinomycin D (7-AAD) is able to incorporate into nuclear DNA. In order to detect these cellular changes, cells were then stained with fluorescently labelled annexin V and PI or 7-aminoactinomycin D (7-AAD) (BD Biosciences) and the signal detected using an Accuri C6 flow cytometer (BD Biosciences). The increase in PS exposure is determined by measuring the percent increase in annexin V signal and the percent of dead cells by measuring the percent increase in PI or 7-AAD signal. Annexin V positive (annexin V^+) or annexin V positive/7-AAD negative (annexin V^+/7-AAD^−) cells are observed in early stages of cell death and annexin V positive/7-AAD positive (annexin V^+/7-AAD^+) cells are dead cells. […]

[3] = tested on: hRBCs; test: Hemagglutination of washed human red blood cells; format: cell-based
Description: Hemagglutination of hRBCs was assessed following incubation of hRBCs with various concentrations of chimeric and humanized VLX4, VLX8, and VLX9 mAbs in vitro essentially as described by Kikuchi et al. Biochem Biophys Res. Commun (2004) 315:912-918. Blood was obtained from healthy donors, diluted (1:50) in PBS/1 mM EDTA/BSA and washed 3 times with PBS/EDTA/BSA. hRBCs were added to U-bottomed 96 well plates with equal volumes of the antibodies (75 μl of each) and incubated for 3 hrs at 37° C. and overnight at 4° C.

[4] = biological target: T1, His-CD47 (recombinant human CD47) (Homo sapiens, UniProt Q08722); test: Solid-phase CD47 ELISA at pH 6 or pH 8; format: binding; conditions: pH 6.0 versus pH 8.0
T1 construct: His; purchased AcroBiosystems
Description: Binding by soluble anti-CD47 mAbs to immobilized recombinant human CD47 and to human CD47 expressed on cells was measured in vitro. For the in vitro binding to recombinant CD47, His-CD47 (AcroBiosystems) was adsorbed to high-binding microtiter plates overnight at 4° C. The wells were washed and varying concentrations of anti-CD47 mAbs were added to the wells in buffers with a of either pH 6 or pH 8 for 1 hour. The wells were washed and then incubated with HRP-labelled secondary antibody for 1 hour at pH 6 or pH 8 followed by addition of peroxidase substrate. The apparent affinities were calculated using non-linear fit model (Graphpad Prism).

pH dependent binding to His-CD47 [4] | Molecule | phagocytosis of Jurkat cells by human macrophages [1] | PS exposure and cell death of Jurkat cells (annexin V^+, annexin V^+/7-AAD^−, annexin V^+/7-AAD^+) [2] | HA hRBC ([3]; hemagglutination, chimeric (xi) mAbs, Table 1) | visible hemagglutination of hRBCs ([3]; result in words, mAb concentrations from 50 μg/ml down)
– | VLX9 IgG2 (xi): chimeric VLX9 anti-CD47 mAb, human IgG2 (antibody) heavy: QVQLQQFGAELAKPGASVQMSCKASGYTFTNYWIHWVKQRPGQGLEWIGYTDPRTDYTEYNQKFKDKATLAADRSSSTAYMRLSSLTSEDSAVYYCAGGGRVGLGYWGHGSSVTVSSASTKGPSVFPLAPCSRSTSESTAALGCLVKDYFPEPVTVSWNSGALTSGVHTFPAVLQSSGLYSLSSVVTVPSSNFGTQTYTCNVDHKPSNTKVDKTVERKCCVECPPCPAPPVAGPSVFLFPPKPKDTLMISRTPEVTCVVVDVSHEDPEVQFNWYVDGVEVHNAKTKPREEQFNSTFRVVSVLTVVHQDWLNGKEYKCKVSNKGLPAPIEKTISKTKGQPREPQVYTLPPSREEMTKNQVSLTCLVKGFYPSDIAVEWESNGQPENNYKTTPPMLDSDGSFFLYSKLTVDKSRWQQGNVFSCSVMHEALHNHYTQKSLSLSPGK light: DVFMTQTPLSLPVSLGDQASISCRSSQNIVQSNGNTYLEWYLQKPGQSPKLLIYKVFHRFSGVPDRFSGSGSGTDFTLKISRVEAEDLGVYYCFQGSHVPWTFGGGTKVEIKRTVAAPSVFIFPPSDEQLKSGTASVVCLLNNFYPREAKVQWKVDNALQSGNSQESVTEQDSKDSTYSLSSTLTLSKADYEKHKVYACEVTHQGLSSPVTKSFNRGEC | increased phagocytosis | induced increased PS exposure and cell death | Yes | caused visible hemagglutination
did not display pH dependence | VLX9 IgG (murine): murine VLX9 anti-CD47 antibody (antibody, V domains shown) VH: QVQLQQFGAELAKPGASVQMSCKASGYTFTNYWIHWVKQRPGQGLEWIGYTDPRTDYTEYNQKFKDKATLAADRSSSTAYMRLSSLTSEDSAVYYCAGGGRVGLGYWGHGSSVTVSS VL: DVFMTQTPLSLPVSLGDQASISCRSSQNIVQSNGNTYLEWYLQKPGQSPKLLIYKVFHRFSGVPDRFSGSGSGTDFTLKISRVEAEDLGVYYCFQGSHVPWTFGGGTKVEIK | – | – | – | –
